Source: patent US20240299505A1 (INDUSTRY UNIVERSITY COOPERATION FOUNDATION HANYANG …, published 2024)

B1: endogenous NAMPT / extracellular NAMPT (eNAMPT) of mouse macrophages (BMDMs) and mouse colon (enzyme, UniProt Q99KQ4 1-491, looked up)
chain: MNAAAEAEFNILLATDSYKVTHYKQYPPNTSKVYSYFECREKKTENSKVRKVKYEETVFYGLQYILNKYLKGKVVTKEKIQEAKEVYREHFQDDVFNERGWNYILEKYDGHLPIEVKAVPEGSVIPRGNVLFTVENTDPECYWLTNWIETILVQSWYPITVATNSREQKKILAKYLLETSGNLDGLEYKLHDFGYRGVSSQETAGIGASAHLVNFKGTDTVAGIALIKKYYGTKDPVPGYSVPAAEHSTITAWGKDHEKDAFEHIVTQFSSVPVSVVSDSYDIYNACEKIWGEDLRHLIVSRSTEAPLIIRPDSGNPLDTVLKVLDILGKKFPVTENSKGYKLLPPYLRVIQGDGVDINTLQEIVEGMKQKKWSIENVSFGSGGALLQKLTRDLLNCSFKCSYVVTNGLGVNVFKDPVADPNKRSKKGRLSLHRTPAGNFVTLEEGKGDLEEYGHDLLHTVFKNGKVTKSYSFDEVRKNAQLNIEQDVAPH
notes: Endogenous protein of mouse cells or tissue, immunoprecipitated with anti-NAMPT; also called iNAMPT
B3: recombinant NAMPT protein (rNAMPT) (enzyme)
chain: MNPAAEAEFNILLATDSYKVTHYKQYPPNTSKVYSYFECREKKTENSKLRKVKYEETVFYGLQYILNKYLKGKVVTKEKIQEAKDVYKEHFQDDVFNEKGWNYILEKYDGHLPIEIKAVPEGFVIPRGNVLFTVENTDPECYWLTNWIETILVQSWYPITVATNSREQKKILAKYLLETSGNLDGLEYKLHDFGYRGVSSQETAGIGASAHLVNFKGTDTVAGLALIKKYYGTKDPVPGYSVPAAEHSTITAWGKDHEKDAFEHIVTQFSSVPVSVVSDSYDIYNACEKIWGEDLRHLIVSRSTQAPLIIRPDSGNPLDTVLKVLEILGKKFPVTENSKGYKLLPPYLRVIQGDGVDINTLQEIVEGMKQKMWSIENIAFGSGGGLLQKLTRDLLNCSFKCSYVVTNGLGINVFKDPVADPNKRSKKGRLSLHRTPAGNFVTLEEGKGDLEEYGQDLLHTVFKNGKVTKSYSFDEIRKNAQLNIELEAAHH
notes: Pulled down with anti-His, so it carries a His tag; also called eNAMPT (rNAMPT); unlabeled NAMPT

What was measured:
[1] = target: T1, endogenous NLRP3 of mouse macrophages (BMDMs) (mouse, UniProt Q8R4B8 1-1033, limits assumed); experiment: co-IP (anti-NAMPT) from LPS/ATP-treated BMDMs, anti-NLRP3 blot
[2] = target: T2, endogenous CYBB of mouse macrophages (BMDMs) and mouse colon (mouse, UniProt Q61093 2-570); experiment: co-IP (anti-His or anti-NAMPT) from mouse colon tissue, anti-CYBB blot
T2 construct: whole, on cells; Detected by immunoblot after co-immunoprecipitation from lysates; also called NOX2; gp91Phox
T2 sequence (looked up): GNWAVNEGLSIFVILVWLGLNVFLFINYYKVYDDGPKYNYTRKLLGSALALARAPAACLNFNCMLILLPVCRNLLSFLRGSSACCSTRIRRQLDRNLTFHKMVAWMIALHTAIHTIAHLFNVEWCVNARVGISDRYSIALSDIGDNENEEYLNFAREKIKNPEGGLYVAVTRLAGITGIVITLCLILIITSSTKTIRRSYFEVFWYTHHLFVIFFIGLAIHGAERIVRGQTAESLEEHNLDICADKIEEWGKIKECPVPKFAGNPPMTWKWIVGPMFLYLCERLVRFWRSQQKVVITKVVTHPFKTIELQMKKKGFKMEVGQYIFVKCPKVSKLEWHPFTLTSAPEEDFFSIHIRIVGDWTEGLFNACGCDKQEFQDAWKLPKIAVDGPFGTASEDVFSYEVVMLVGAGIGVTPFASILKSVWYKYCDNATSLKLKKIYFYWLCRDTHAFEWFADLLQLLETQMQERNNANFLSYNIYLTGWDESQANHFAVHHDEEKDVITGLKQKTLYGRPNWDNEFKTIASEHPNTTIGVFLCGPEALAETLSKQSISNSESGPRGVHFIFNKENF

[3] = target: T3, endogenous TLR4 of mouse macrophages (BMDMs) and mouse colon (mouse, UniProt Q9QUK6 26-835); experiment: co-IP (anti-His or anti-NAMPT) from mouse colon tissue, anti-TLR4 blot
T3 construct: whole, on cells; Detected by immunoblot after co-immunoprecipitation from lysates
T3 sequence (looked up): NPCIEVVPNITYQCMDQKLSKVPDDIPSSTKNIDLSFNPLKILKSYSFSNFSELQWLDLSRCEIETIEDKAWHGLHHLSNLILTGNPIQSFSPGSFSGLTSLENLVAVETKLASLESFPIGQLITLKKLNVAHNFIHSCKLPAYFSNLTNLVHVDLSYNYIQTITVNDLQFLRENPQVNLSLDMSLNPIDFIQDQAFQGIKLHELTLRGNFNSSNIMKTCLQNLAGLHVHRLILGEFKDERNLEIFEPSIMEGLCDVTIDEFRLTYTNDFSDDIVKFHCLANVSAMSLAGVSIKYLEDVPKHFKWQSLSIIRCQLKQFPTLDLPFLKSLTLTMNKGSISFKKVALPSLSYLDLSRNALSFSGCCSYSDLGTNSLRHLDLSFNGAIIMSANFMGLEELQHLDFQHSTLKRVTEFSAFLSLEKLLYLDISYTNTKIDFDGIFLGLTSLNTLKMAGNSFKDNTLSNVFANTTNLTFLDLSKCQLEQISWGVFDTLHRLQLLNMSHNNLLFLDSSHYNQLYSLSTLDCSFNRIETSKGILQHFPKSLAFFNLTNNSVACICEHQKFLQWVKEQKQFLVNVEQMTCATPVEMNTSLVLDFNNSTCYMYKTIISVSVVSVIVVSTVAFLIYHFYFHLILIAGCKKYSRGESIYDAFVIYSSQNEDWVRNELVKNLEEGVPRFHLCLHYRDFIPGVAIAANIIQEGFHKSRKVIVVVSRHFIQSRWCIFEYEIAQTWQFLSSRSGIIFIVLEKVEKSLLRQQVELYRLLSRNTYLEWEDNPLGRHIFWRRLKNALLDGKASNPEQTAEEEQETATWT

[4] = target: B3; experiment: fluorescence binding: titration of fluorescently labeled CYBB with unlabeled rNAMPT, curve fit
Description: Specifically, (A) normal human cases along with UC patients were used for IB with αNAMPT and αCYBB. For IB with αActin (upper), whole cell lysates (WCLs) were used. Representative gel images derived from five independent healthy controls and patients were shown. […] Five of ten data from normal human and UC patients were shown. […] (B) The colons of normal mice and mice with acute and chronic colitis were analyzed for IB with αNAMPT and αCYBB. WCLs were used for IB together with αActin. Biological replicates (n=10) for each condition were performed. (C) BMDMs were activated with LPS (100 ng/mL) for the indicated times (left), primed with LPS (100 ng/ml) for 4 hours, and then stimulated with ATP (1 mM) for the indicated times (right). IB in the supernatant (SN) with αNAMPT and WCL with αNAMPT or αActin. […] BMDMs were treated for IP with αNAMPT or αHis, and then treated sequentially IB with αTLR4, αCYBB, or αCYBA (D), and IB with αASC or αNLRP3(E). WCLs were used for IB with αTLR4, αCYBB, αCYBA, αASC, αNLRP3 or αActin.

[5] = target: T1, endogenous NLRP3 of mouse macrophages …; experiment: co-IP (anti-His) from BMDMs incubated with rNAMPT, anti-NLRP3 blot
[6] = target: B1; experiment: co-IP (anti-NAMPT) from LPS/ATP-treated BMDMs, anti-ASC blot
[7] = target: B3; experiment: co-IP (anti-His) from BMDMs incubated with rNAMPT, anti-ASC blot

T1 sequence (Q8R4B8 whole entry): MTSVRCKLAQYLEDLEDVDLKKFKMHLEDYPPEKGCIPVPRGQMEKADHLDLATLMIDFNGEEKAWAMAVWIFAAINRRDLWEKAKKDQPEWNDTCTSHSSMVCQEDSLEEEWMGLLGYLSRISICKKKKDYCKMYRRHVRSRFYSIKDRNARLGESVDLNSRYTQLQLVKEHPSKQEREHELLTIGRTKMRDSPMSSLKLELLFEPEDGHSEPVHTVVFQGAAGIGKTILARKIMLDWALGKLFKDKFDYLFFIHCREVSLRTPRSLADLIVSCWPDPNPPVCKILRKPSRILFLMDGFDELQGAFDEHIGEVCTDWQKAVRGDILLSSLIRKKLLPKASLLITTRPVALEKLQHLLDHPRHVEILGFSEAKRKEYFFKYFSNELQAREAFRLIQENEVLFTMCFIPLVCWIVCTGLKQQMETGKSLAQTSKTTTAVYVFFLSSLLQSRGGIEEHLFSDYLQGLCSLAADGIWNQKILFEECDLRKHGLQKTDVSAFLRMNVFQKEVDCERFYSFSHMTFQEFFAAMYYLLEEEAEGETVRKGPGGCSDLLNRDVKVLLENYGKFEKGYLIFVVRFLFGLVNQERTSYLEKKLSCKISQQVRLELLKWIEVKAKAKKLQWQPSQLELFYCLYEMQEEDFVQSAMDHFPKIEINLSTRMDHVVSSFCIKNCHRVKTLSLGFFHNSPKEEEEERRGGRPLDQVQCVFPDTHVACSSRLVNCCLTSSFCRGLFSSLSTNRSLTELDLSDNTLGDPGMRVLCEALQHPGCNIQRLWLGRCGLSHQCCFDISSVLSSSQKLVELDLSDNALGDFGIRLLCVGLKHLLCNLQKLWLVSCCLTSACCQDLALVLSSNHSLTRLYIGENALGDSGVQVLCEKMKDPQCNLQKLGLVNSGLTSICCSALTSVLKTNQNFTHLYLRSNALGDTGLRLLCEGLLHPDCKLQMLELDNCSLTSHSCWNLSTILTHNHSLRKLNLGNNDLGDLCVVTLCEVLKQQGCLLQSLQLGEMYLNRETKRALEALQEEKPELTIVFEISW

B1
binding result [1]: no binding | binding result [2]: binds | binding result [3]: binds

B2: fluorescently labeled CYBB (enzyme)
chain: MGNWAVNEGLSIFVILVWLGLNVFLFVWYYRVYDIPPKFFYTRKLLGSALALARAPAACLNFNCMLILLPVCRNLLSFLRGSSACCSTRVRRQLDRNLTFHKMVAWMIALHSAIHTIAHLFNVEWCVNARVNNSDPYSVALSELGDRQNESYLNFARKRIKNPEGGLYLAVTLLAGITGVVITLCLILIITSSTKTIRRSYFEVFWYTHHLFVIFFIGLAIHGAERIVRGQTAESLAVHNITVCEQKISEWGKIKECPIPQFAGNPPMTWKWIVGPMFLYLCERLVRFWRSQQKVVITKVVTHPFKTIELQMKKKGFKMEVGQYIFVKCPKVSKLEWHPFTLTSAPEEDFFSIHIRIVGDWTEGLFNACGCDKQEFQDAWKLPKIAVDGPFGTASEDVFSYEVVMLVGAGIGVTPFASILKSVWYKYCNNATNLKLKKIYFYWLCRDTHAFEWFADLLQLLESQMQERNNAGFLSYNIYLTGWDESQANHFAVHHDEEKDVITGLKQKTLYGRPNWDNEFKTIASQHPNTRIGVFLCGPEALAETLSKQSISNSESGPRGVHFIFNKENF
Kd [4]: 896 nM

B3
binding result [5]: no binding (tested: 1 ug/mL rNAMPT)

B4: endogenous ASC of mouse macrophages (BMDMs) (other, UniProt Q9EPB4 1-193, looked up)
chain: MGRARDAILDALENLSGDELKKFKMKLLTVQLREGYGRIPRGALLQMDAIDLTDKLVSYYLESYGLELTMTVLRDMGLQELAEQLQTTKEESGAVAAAASVPAQSTARTGHFVDQHRQALIARVTEVDGVLDALHGSVLTEGQYQAVRAETTSQDKMRKLFSFVPSWNLTCKDSLLQALKEIHPYLVMDLEQS
binding result [6]: no binding | binding result [7]: no binding (tested: 1 ug/mL rNAMPT)
